Patent US20240132625A1 (KOREA ADVANCED INSTITUTE OF SCIENCE AND TECHNOLOGY, published 2024)

Experiments:
[1] = molecular target: the molecule itself; experiment: homodimerisation; method not stated (FIG. 2)
[2] = molecular target: Receptor-binding domain of the SARS-CoV-2 spike protein (biotinylated, Acrobio system) (SARS-CoV-2, UniProt P0DTC2 319-541); experiment: BLI

B1: homodimeric coiled-coil (HomoCC) (designed binder)
chain: DEEQRKVVEEDLKVLEHLRRVVERKEHLVRDAYEETFDDQQREVVREKLKVLEHLEKVIERDRHLSSRPGL
**Q.** Which Kd [1] does the source give for B1 here?
**A.** The Kd was 7.6 µM.

B2: CV30 (antibody, V domains shown)
VH: EVQLVESGGGLIQPGGSLRLSCAASGVIVSSNYMSWVRQAPGKGLEWVSVIYSGGSTYYADSVKGRFTISRDNSKNTLYLQMNSLRAEDTAVYYCARDLDVSGGMDVWGQGTTVTVSS
VL: not shown
**Q.** Which Kd [2] does the source give for B2 here?
**A.** The Kd was ≤ 0.01 nM.
